In PMC10438374, “FAN1 removes triplet repeat extrusions via a PCNA- and RFC-dependent mechanism” (Proceedings of the National Academy of Sciences of the …, 2023):

Target: T1, MutLα (MLH1/PMS2 heterodimer), recombinant human (human, UniProt P40692 1-756; P54278 1-862)
T1 construct: MLH1 subunit of human MutLα; PMS2 subunit of human MutLα; Heterodimer; source: recombinant (details in SI Appendix)
Assay: far-Western, overlay or dot blot; far-western analysis of FAN1 and MutLα (SI Appendix, Fig. S4E); which protein was spotted is not told in the main text
Conditions: both partners purified

- binding result: binds
B1: FAN1 (FANCD2 and FANCI-associated nuclease 1), recombinant full-length human (enzyme, UniProt Q9Y2M0 1-1017, looked up)
chain: MMSEGKPPDKKRPRRSLSISKNKKKASNSIISCFNNAPPAKLACPVCSKMVPRYDLNRHLDEMCANNDFVQVDPGQVGLINSNVSMVDLTSVTLEDVTPKKSPPPKTNLTPGQSDSAKREVKQKISPYFKSNDVVCKNQDELRNRSVKVICLGSLASKLSRKYVKAKKSIDKDEEFAGSSPQSSKSTVVKSLIDNSSEIEDEDQILENSSQKENVFKCDSLKEECIPEHMVRGSKIMEAESQKATRECEKSALTPGFSDNAIMLFSPDFTLRNTLKSTSEDSLVKQECIKEVVEKREACHCEEVKMTVASEAKIQLSDSEAKSHSSADDASAWSNIQEAPLQDDSCLNNDIPHSIPLEQGSSCNGPGQTTGHPYYLRSFLVVLKTVLENEDDMLLFDEQEKGIVTKFYQLSATGQKLYVRLFQRKLSWIKMTKLEYEEIALDLTPVIEELTNAGFLQTESELQELSEVLELLSAPELKSLAKTFHLVNPNGQKQQLVDAFLKLAKQRSVCTWGKNKPGIGAVILKRAKALAGQSVRICKGPRAVFSRILLLFSLTDSMEDEDAACGGQGQLSTVLLVNLGRMEFPSYTINRKTHIFQDRDDLIRYAAATHMLSDISSAMANGNWEEAKELAQCAKRDWNRLKNHPSLRCHEDLPLFLRCFTVGWIYTRILSRFVEILQRLHMYEEAVRELESLLSQRIYCPDSRGRWWDRLALNLHQHLKRLEPTIKCITEGLADPEVRTGHRLSLYQRAVRLRESPSCKKFKHLFQQLPEMAVQDVKHVTITGRLCPQRGMCKSVFVMEAGEAADPTTVLCSVEELALAHYRRSGFDQGIHGEGSTFSTLYGLLLWDIIFMDGIPDVFRNACQAFPLDLCTDSFFTSRRPALEARLQLIHDAPEESLRAWVAATWHEQEGRVASLVSWDRFTSLQQAQDLVSCLGGPVLSGVCRHLAADFRHCRGGLPDLVVWNSQSRHFKLVEVKGPNDRLSHKQMIWLAELQKLGAEVEVCHVVAVGAKSQSLS
notes: FAN1 (FANCD2 and FANCI-associated nuclease 1), human, full length; also called FAN1 nuclease; source: recombinant; prepared as per previously established procedures (details in SI Appendix)
